Experimental data: the nanobody polyreactivity screen of Harvey et al. (2022)

test: yeast display, Sf9 membrane polyspecificity reagent, FACS + sequencing; frameworks hold sequencing errors
Outline: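 Nanobodies from a synthetic yeast display library (Saccharomyces cerevisiae BJ5465), induced 36–48 hours with galactose, were stained 1 hour at 4 °C with 10% biotinylated, detergent-solubilized Sf9 membrane reagent, enriched on streptavidin microbeads, then FACS-sorted. Anti-HA (expression) and streptavidin (reagent binding) fluorescence set low and high (top ~1%) gates. Polyreactivity labels come from the gate of origin. Genes were colony-PCR amplified, MiSeq 2 × 250 sequenced and filtered by CDR length.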

| Sequence | polyreactivity (PSR sort gate) |
| --- | --- |
| HVQLVESGGGLVQAGGSLRLSCAASGFTFRLYAMGWYRQAPGKERELVAAINWGGGSTRYADSVKGRFTISRDNAKNTVYLQMNSLKPEDTAVYYCAARRFAYYFQYLGGGYWGQGTQVTVSS | high polyreactivity |
| HVQLVESGGGLVQAGGSLRLSCAASGLIFDWYAMGWYRQAPGKERELVADISYSGGSTNYADSVKGRFTISRDNAKNTVYLQMNSLKPEDTAVYYCAVDYYYPTLTIGYYYWGQGTQVTVSS | low polyreactivity |
| HVQLVESGGGLVQAGGSLRLSCAASGRIFAPYDMGWYRPAPGNERELVAAISRSGGSTYYADSVKGRFTSSRDNAKNTVYLQMNSLKPEDTAVYYCAASYPGRYWLYRYEYWGQGTQVTVSS | high polyreactivity |
| HVQLVESGGGLVQAGGSLRLSCAASGRIFFRYAMGWYRQAPGKERELVAAISYSGGSTYYADSVKGRFTISRDNAKNTVYLQMNSLKPEDTAVYYCAAPLLRDLRSPYSYNYWGQGTQVTVSS | low polyreactivity |
| HVQLVESGGGLVQAGGSLRLSCAASGRIFGVYVMGWYRPAPGKERELVAGISPSGGSTYYADSVKGRFTISRDNAKNTVYLQMNSLKPEDTAVYYCAAVLRIRRPRYGYWGQGTQVTVSS | high polyreactivity |
| HVQLVESGGGLVQAGGSLRLSCAASGRIFNDYSMGWYRQAPGKERELVAAIRRRGDRTYYADSVKGRFTISRDNAKNTVYLQMNSLKPEDTAVYYCAKSQSAKGGYDYWGQGTQVTVSS | high polyreactivity |
| HVQLVESGGGLVQAGGSLRLSCAASGRIFWRYAMGWYRQAPGKEREFVADITYSGGSTYYADSVKGRFTISRDNAKNTVYLQMNSLKPEDTAVYYCAAGWVRPWATYKLDYWGQGTQVTVSS | high polyreactivity |
| HVQLVESGGGLVQAGGSLRLSCAASGRTLGSYAIGWYRQAPGKARELVAAISGGSTNYADSVKGRFTISRDNAKNTVYLQMNRLKPEDTAVYYCAADPYGYLYDSWGQGTQVTVSS | low polyreactivity |
| HVQLVESGGGLVQAGGSLRLSCAASGSIFEYYAMGWYRQAPGKERELVASISRGTSTNYADSVKGRFTISRDNAKNTVYLQMNSLKPEDTAVYYCNADGWTVVLDTYGSWGQGTQVTVSS | low polyreactivity |
| HVQLVESGGGLVQAGGSLRLSCAASGSIFLHNTMGWYRQAPGKERELVAVISKRGGSTYYADSVKGRFTISRDNAKNTVYLQMNCLKPEDTAVYYCNKTRSAGHPGVDGSPYYYWGQGTQVTVSS | high polyreactivity |
| HVQLVESGGGLVQAGGSLRLSCAASGSISHLYTMRWYRQAPGKERELVAAIRYSGGRTDYADSVKGRFTISRDNAKNTVYLQMNSLKPEDTAVYYCAATQLRRWYYHYGLDYWGQGTQVTVSS | high polyreactivity |
| HVQLVESGGGLVQAGGSLRLSCAASGSTFGENAMGWYRQAPGKERELVAAITWGTNTYYADSVKGRFTISRDNAKNTVYLQMNSLKPEDTAVYYCAAQFQTRGWRYVYWGQGTQVSVSS | low polyreactivity |
| HVQLVESGGGLVQAGGSLRLSCAASGSTFTLNVMGWYRQAPGKERELVAGISKRGGNTYYADSVKGRFTISRDNAKNTVYLQMNSLKPEDTAVYYCATYSRIFKWEYYYWGQGTQVTVSS | high polyreactivity |
| HVQLVESGGGLVQAGGSLRLSCAASGSTFTRYVMGWYRQAPGKERELVAAISSGVSTYYADSVKGRFTISRDNAKNSVYLQMNSLKPEDTAVYYCDANRYRAREYKYWGQGTQVTVSS | high polyreactivity |
| HVQLVESGGGLVQAGGSLRLSFAASGRIFTHNAMGLYRKAPGKERELVAAITSGGRTTYADSVKGRFTISRDNAKNTVYLQMNSLKPEDTAVYYCNADTGLGSLDFDKRDYWGQGTQVTVSS | low polyreactivity |
| HVQLVESGGGLVQARGSLRLSCAASGSTFYAYDRGWYRQAPGKERELVAAISSTGGRTDYADSVKGRFTISRDNSKNTVYLQMNSLKPEDTAVYYCAARQLSSHYDYWGQGTQGTVSS | low polyreactivity |
| HVQLVESGRGLFQAGGSLRLSCAASGFIFQYYAMGWYRQAPGKERELVAAISFGGSTYYADSVKGRFTISRDNAKNTVYLQMNSLKPEDTAVYYCAGDYYSWYGYDYWGQCTQVTVSS | low polyreactivity |
